PMC9381132 (Molecular Cancer Therapeutics, 2022)
Like-named read-outs stand apart in the source and are kept apart here.

T1: untagged human LY6G6D extracellular domain (construct used for structural studies) (human)
T1 chain: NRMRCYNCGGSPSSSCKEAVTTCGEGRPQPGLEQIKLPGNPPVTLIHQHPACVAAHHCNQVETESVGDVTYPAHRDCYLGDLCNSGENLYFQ


What was measured:
[1] = biological target: T1, untagged human LY6G6D extracellular …; experiment: SEC-MALS
[2] = biological target: T2, human LY6G6D (recombinant protein of the BIAcore kinetics and of the epitope binning) (Homo sapiens, UniProt O95868); experiment: SPR
[3] = biological target: T2, human LY6G6D (recombinant protein of …); experiment: SPR; remark: listed apart in the source

Row | stoichiometry N [1] | binding result [2] | binding result [3] | Binder
1 | 1 | binds |  | 1G4 Fab (Fab, V domains shown) VH: EVQLQQSGPELVKPGASVKMSCKASGYTFTTYVMHWVQQKPGQGLEWIGYINPYNDGTKYNEKFKGKATLTSDTSSSTAYMELSSLTSDDSAVYYCGRRNFDYWGQGTLVTVSS VL: DILMTQSPSSLTVSAGEKVTMSCKSSQSLLLSGNQENYLAWHQQKPGRSPKTLITWASTRISGVSDRFIGSGSGTDFTLTINSVQAEDLAVYYCQQSYSAPYTFGQGTKVEIK
2 |  |  | binds | anti-LY6G6D murine mAb clone 1G4 (antibody, V domains shown) VH: EVQLQQSGPELVKPGASVKMSCKASGYTFTTYVMHWVQQKPGQGLEWIGYINPYNDGTKYNEKFKGKATLTSDTSSSTAYMELSSLTSDDSAVYYCGRRNFDYWGQGTLVTVSS VL: DILMTQSPSSLTVSAGEKVTMSCKSSQSLLLSGNQENYLAWHQQKPGRSPKTLITWASTRISGVSDRFIGSGSGTDFTLTINSVQAEDLAVYYCQQSYSAPYTFGQGTKVEIK
